Experimental data published in US20240262904A1 (SHANGHAI MABGEEK BIOTECH, published 2024).

B1: humanized anti-human TSLP antibody 111H (antibody, human IgG1, kappa, V domains shown)
VH: EVQLVESGGGLVQPGGSLRLSCSVSGFSLTYSGVNWVRQAPGKGLEWLGAIWGDGSTNYHSALISRLTISKDNSKSTVYLQMNSLRAEDTAVYYCAKPDGYSGIFAYWGQGTLVTVSS
VL: EIVLTQSPGTLSLSPGERATLSCSASSSLSSNYLHWYQQKPGQAPRLLIYRTSNLASGVPDRFSGSGSGTDFTLTISRLEPEDFAVYYCQQGSGILVTFGQGTKLEIKR
notes: Humanized, human IgG1 constant region; also called humanized antibody No. 111
B2: humanized anti-human TSLP antibody 163H (antibody, human IgG1, kappa, V domains shown)
VH: EVQLVESGGGLVQPGGSLRLSCAASGFTFSSFGMHWVRQAPGKGLEWVSYISSGSSNIYYADTVKGRFTISRDNAKNSLYLQMNSLRAEDTAVYYCARDGGSRRHYYVMDYWGQGTLVTVSS
VL: EIVLTQSPATLSLSPGERATLSCKASQDVSPAVAWYQQKPGQSPRLLIYSASYRYTGVPARFSGSGSGTDFTLTISSLEPEDFAVYYCQQHYSSPFTFGQGTKLEIKR
notes: Humanized, human IgG1 constant region
B3: humanized anti-human TSLP antibody 101H (antibody, human IgG1, kappa, V domains shown)
VH: QVQLVQSGAEVKKPGASVKVSCKTSGYTFTKYWIQWVRQAPGQGLEWIGEIFPGTGTTYYNEIFKARVTLTVDTSTSTAYMELSSLRSEDTAVYYCARRGDYDVYYALDYWGQGTLVTVSS
VL: EIVLTQSPATLSLSPGERATLSCSANSGVNYIHWYQQKPGQAPRFWIWTTSNLASGVPARFSGSGSGTDFTLTISSLEPEDFAVYYCQQRSSYPFTFGQGTKLEIKR
notes: Humanized, human IgG1 constant region; also called humanized antibody No. 101

Key:
[1] = target: T1, TSLP-flag-Biotin (human, UniProt Q969D9 29-159, limits assumed, biotin label, site not stated); experiment: competition ELISA by the method of Example 5: blocks TSLP-flag-Biotin binding to coated TSLPR-ECD-hFc
T1 construct: the labelling is not described; also called biotinylated TSLP-flag

[2] = target: T2, human TSLP antigen tagged with Flag (hTSLP-Flag) (human, UniProt Q969D9 29-159, limits assumed); experiment: cell-based or functional assay
[3] = target: T2, human TSLP antigen tagged with Flag …; experiment: SPR, Biacore T200, antibody captured on Protein A chip, hTSLP-Flag as analyte

Binder | IC50 [1] [µg/mL] | IC50 of inhibition of TSLP-dependent STAT5 activation (luciferase, IL-7R/TSLPR-BaF3-Luc (STAT5) cells, TSLP-flag stimulus) [2] [µg/mL] | Kd [3] [nM] | koff [3] [s⁻¹] | kon [3] [M⁻¹ s⁻¹]
B1 | 0.167 | 0.184 | – | – | –
B2 | 0.159 | 0.378 | 0.0513 | 0.000302 | 5.89e+06
B3 | 0.185 | – | – | – | –
